According to patent US20030162277:

Key:
[1] = target: T1, cdc2-kinase substrate peptide Ac-SPGRRRRK
T1 chain: SPGRRRRK

[2] = target: T2, p42/p44 MAP kinase substrate peptide LMECRNSPVAKT
T2 chain: LMECRNSPVAKT

[3] = target: T3, casein kinase II substrate peptide RRRDDDSDDD
T3 chain: RRRDDDSDDD

[4] = target: T4, Ca-/calmodulin-dependent PK substrate peptide PLARTLSVAGLPGK
T4 chain: PLARTLSVAGLPGK

[5] = target: T5, protein kinase C substrate peptide QKRPSQRSK
T5 chain: QKRPSQRSK

[6] = target: T6, csk tyrosine kinase substrate peptide KKKKEEIYFFF
T6 chain: KKKKEEIYFFF

[7] = target: T7, insulin receptor tyrosine kinase substrate peptide KKKLPATGDYMNMSPVGD
T7 chain: KKKLPATGDYMNMSPVGD

[8] = target: T8, p42/p44 MAP kinase substrate peptide APRTPGGRR
T8 chain: APRTPGGRR

[9] = target: T9, Ca-/calmodulin-dependent PK substrate peptide KKALRRQETVDAL
T9 chain: KKALRRQETVDAL

[10] = target: T10, raf-1 kinase substrate peptide SGQLIDSMANSFVGTRS
T10 chain: SGQLIDSMANSFVGTRS

[11] = target: T11, p34 cdc-kinase substrate peptide PKTPKKAKKL
T11 chain: PKTPKKAKKL

[12] = target: T12, c-src tyrosine kinase substrate peptide YIYGSFK
T12 chain: YIYGSFK

[13] = target: T13, abl tyrosine kinase substrate peptide EAIYAAPFAKKK
T13 chain: EAIYAAPFAKKK

[14] = target: T14, S6 kinase substrate peptide LSSLRASTSKSGGQK
T14 chain: LSSLRASTSKSGGQK

[15] = target: T15, protein kinase C substrate peptide KKRFSFKKSFKLSGFSFK
T15 chain: KKRFSFKKSFKLSGFSFK

[16] = target: T16, cAMP-dependent protein kinase substrate peptide LRRASLG
T16 chain: LRRASLG

[17] = target: T17, myosin light chain kinase substrate peptide KKRPQRATSNVFS
T17 chain: KKRPQRATSNVFS

[18] = target: T18, cGMP-dependent protein kinase substrate peptide RKISASEFDRPLR
T18 chain: RKISASEFDRPLR

[19] = target: T19, p42/p44 MAP kinase substrate peptide EAAEAEPAEPSSPAAEAEGA
T19 chain: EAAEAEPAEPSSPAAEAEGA

[20] = target: T20, casein kinase I substrate peptide RRKDLHDDEEDEAMSITA
T20 chain: RRKDLHDDEEDEAMSITA

B1: Murine Lymph node Stromal cell Kinase 1 (MLSK-1) (protein)
chain: MESVALLQRPSQAPSASALASESARPLADGLIKSPKPLMKKQAVKRHHHKHNLRHRYEFLETLGKGTYGKVKKARESSGRLVAIKSIRKDKIKDEQDLLHIRREIEIMSSLNHPHIIAIHEVFENSSKIVIVMEYASRGDLYDYISERPRLSERDARHFFRQIVSALHYCHQNGIVHRDLKLENILLDANGNIKIADFGLSNLYHKGKFLQTFCGSPLYASPEIVNGKPYVGPEVDSWSLGVLLYILVHGTMPFDGQDHKTLVKQISNGAYREPPKPSDACGLIRWLLMVNPTRRATLEDVASHWWVNWGYTTGVGEQEALREGGHPSGDFGRASMADWLRRSSRPLLENGAKVCSFFKQHVPGGGSTVPGLERQHSLKKSRKENDMAQNLQGDPAEDTSSRPGKSSLKLPKGILKKKSSTSSGEVQEDPQELRPVPDTPGQPVPAVSLLPRKGILKKSRQRESGYYSSPEPSESGELLDASDVFVSGDPVEQKSPQASGLLLHRKGILKLNGKFSRTALEGTTPSTFGSLDQLASSHPAARPSRPSGAVSEDSILSSESFDQLDLPERLPETPLRGCVSVDNLRGLEQPPSEGLKRWWQESLGDSCFSLTDCQEVTAAYRQALGICSKLS
Phosphorylation by MLSK-1 (% of max.) [1]: 94.8 % of max.
Phosphorylation by MLSK-1 (% of max.) [2]: 3.8 % of max.
Phosphorylation by MLSK-1 (% of max.) [3]: 17.6 % of max.
Phosphorylation by MLSK-1 (% of max.) [4]: 10.3 % of max.
Phosphorylation by MLSK-1 (% of max.) [5]: 75 % of max.
Phosphorylation by MLSK-1 (% of max.) [6]: 82.1 % of max.
Phosphorylation by MLSK-1 (% of max.) [7]: 33.7 % of max.
Phosphorylation by MLSK-1 (% of max.) [8]: 88.6 % of max.
Phosphorylation by MLSK-1 (% of max.) [9]: 20.9 % of max.
Phosphorylation by MLSK-1 (% of max.) [10]: 43.1 % of max.
Phosphorylation by MLSK-1 (% of max.) [11]: 82 % of max.
Phosphorylation by MLSK-1 (% of max.) [12]: 66.6 % of max.
Phosphorylation by MLSK-1 (% of max.) [13]: 69.3 % of max.
Phosphorylation by MLSK-1 (% of max.) [14]: 66.6 % of max.
Phosphorylation by MLSK-1 (% of max.) [15]: 100 % of max.
Phosphorylation by MLSK-1 (% of max.) [16]: 65.9 % of max.
Phosphorylation by MLSK-1 (% of max.) [17]: 72 % of max.
Phosphorylation by MLSK-1 (% of max.) [18]: 62.2 % of max.
Phosphorylation by MLSK-1 (% of max.) [19]: 0 % of max.
Phosphorylation by MLSK-1 (% of max.) [20]: 14.1 % of max.
